Patent US20100125055A1 (Dana-Farber, published 2010)
Where no end group is shown, it is not given here.

B1: His-tagged MUC1 cytoplasmic domain (other)
chain: CQCRRKNYGQLDIFPARDTYHPMSEYPTYHTHGRYVPPSSTDRSPYEKVSAGNGGSSLSYTNPAVAATSANL
notes: Purified recombinant protein; It forms oligomers; also called His-MUC1-CD; His-tagged MUC1-CD; not shown: His tag

Columns and labels:
[1] = target: the molecule itself; assay: self-association of purified His-MUC1-CD (1.5 mg/ml); non-reducing SDS-polyacrylamide gel, immunoblot with anti-MUC1-C; incubated 1 h with PBS, 200 uM MUC1/CQC or 200 uM MUC1/AQA
Protocol: (§1) Schematic representation of the MUC1-C subunit and the 72-amino acid sequence of MUC1-CD are shown. The N-terminal 15 amino acids (shaded sequence) MUC1/CQC and mutated MUC1/AQA peptides were synthesized with the poly-dArg transduction domain. (FIG. 1B) His-MUC1-CD (1.4 mg/ml) was immobilized on a sensor chip in a BIAcore. MUC1/CQC was injected over the chip at 10 μM. Raw binding data were analyzed by BIAevaluation software version 3.0 and fit to a 1:1 Languir binding model. (FIG. 1C) Purified His-MUC1-CD (1.5 mg/ml) was incubated with PBS, 200 μM MUC1/CQC or 200 μM MUC1/AQA for 1 h at room temperature. The proteins were separated in a non-reducing SDS-polyacrylamide gel and analyzed by immunoblotting with anti-MUC1-C. (FIG. 1D) 293 cells were transiently transfected to express an empty vector or GFP-MUC1-CD and Flag-MUC1-CD. At 48 h after transfection, the cells were treated with 5 μM MUC1/CQC or MUC1/AQA for 3 d. The cells were then harvested for immunoblotting with anti-MUC1-C (left panel). Whole cell lysates were also precipitated with anti-Flag and the precipitates were immunoblotted with the indicated antibodies (right panels).

[2] = target: B1; assay: BIAcore (SPR), His-MUC1-CD immobilized, peptide injected at 10 uM, 1:1 Langmuir fit
Protocol: as §1, with “The” for “Schematic representation of the MUC1-C subunit and the 72-amino acid sequence of MUC1-CD are shown. The”
Effects of the MUC1/CQC peptide on MUC1 oligomer formation. The MUC1 cytoplasmic domain (MUC1-CD) contains a CQC motif that is necessary for the formation of oligomers and nuclear localization (Leng et al., 2007). […] Purified His-tagged MUC1-CD forms oligomers as detected by electrophoresis in polyacrylamide gels (FIG. 1C).

Row | Kd [2] [nM] | Binder | binding result [1]
1 |  | B1 | binds
2 | 30 | CQCRRKNYGQLDIFP (cysteine pairing not given here; also: poly-D-Arg transduction domain, length and attachment end not given here, Synthetic peptide (MIT Biopolymer Laboratory); also called CQC long (15-mer); not shown: The poly-D-Arg cell transduction domain) [MUC1/CQC peptide] | 
